According to the RNAGym collection of RNA variant scans (doi:10.1073/pnas.2313332121):

B1: TPR t1 (parent)
chain: GACCAAUCUGCCCUCAGAGCUCGAGAACAUCUUCGGAUGCAGAGGAGGCAGGCUUCGGUGGCGCGAUAGCGCCAACGUCCUCAACCUCCAAUGCAUCCCACCACAUGAUGAUGCCUGAAGAGCCUUGGUUUUUUG

Variants of: B1
Test: polymerase ribozyme fitness, log enrichment relative to wild type (log ratio); higher = more active; in vitro selection for triplet polymerase activity
Method in brief: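 A heterodimeric triplet polymerase ribozyme had each of its subunits mutagenized by PCR into a library, which was transcribed. One round of in vitro selection, done in triplicate, annealed each library with a biotinylated primer, its partner subunit and triplets, then incubated it frozen at −7 °C before gel excision of extended constructs, streptavidin-bead capture and RT-PCR. Fitness is the logarithm of genotype enrichment relative to wild-type enrichment, based on Illumina sequencing of inputs and outputs and inverse-variance-weighted replicate averages. A base-2 logarithm is used, and genotypes were kept only with ≥10 input reads and ≥1 read per output.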

Row | Variant | polymerase ribozyme fitness (log ratio)
1 | G45A G52A C89U U92A G120U | -3.99
2 | G44A G45U G61U A83C | -1.59
3 | G44U C70A | -2.87
4 | G44A G71C | -2.21
5 | G44C C56U C79A C101U | -2.56
6 | G45A C73U C97U A103U G120C | -5.59
7 | G44U U96A | -2.64
8 | G45A C53A C86A U133A | -1.69
9 | G44U C53G G61C U81G C102U U132A | -3.53
10 | G44U C56G U92A C115A | -4.27
11 | G44C G48U C53A G61C U112G | -6.03
12 | G44A C82G | -1.66
13 | G45A C56G U78A G122A U129G | -1.63
14 | G44U U55A | -0.917
15 | G44U A90G U132C | -0.625
16 | G44C C73U | -0.621
17 | G44A C72G C80U C101U | -2.59
18 | G44U A50U C101A C115A | -2.8
19 | G44A C53U | -2.11
20 | G44U C56A G57A C104U U106G | -2.38
21 | G44U G77C | -2.05
22 | G44U A108G | -2.57
23 | G45A C114U | -2.37
24 | G44A G113A U130C | -2.43

Row | Variant | polymerase ribozyme fitness (log ratio)
25 | G44U G127C | -2.57
26 | G44C G63C A91G | -2.62
27 | G44A G63A | -2.44
28 | G44C C102G A108C C114G G122A | -6.67
29 | G44A C62A A111G | -3.93
30 | G44U G128U | -3.49
31 | G44C C99U G110A | -6.64
32 | G44A U59A G60U C89U A91G C104A C114U | -6.21
33 | G45A C49A G110U | -2.18
34 | G44A C98A A111U | -5.83
35 | G44C C88U | -0.458
36 | G44C G61A A84C | -0.524
37 | G45A C88A | -0.795
38 | G44A G60U C72U A90U | -1.55
39 | G44C U54A G61U C85U U87A C102A | -4.76
40 | G45A A50C G63A C82G G117C | -6.01
41 | G44U U54G C76A | -1.81
42 | G45A C72U A74U | -1.2
43 | G45A A84C | -0.717
44 | G44U A46G G117A C124U | -1.75
45 | G45A C70G G110C | -6.17
46 | G44U C62A | -2.41
47 | G45A C56A | -0.425
48 | G44A G120U | -1.14

Row | Variant | polymerase ribozyme fitness (log ratio)
49 | G44A G120C | 0.014
50 | G44U C89G | -0.509
51 | G44U U59C G110A G127A U132A | -4.19
52 | G44U A50U | -2.28
53 | G45A C49A C94U G110A C124G | -1.89
54 | G44C G69U U78C A95U C101U | -0.81
55 | G44U C64G | -7.29
56 | G44U C70U U96A C104A | -4.6
57 | G44U G77C A90U | -1.31
58 | G44U G135U | -2.86
59 | G44U G63C U78A | -0.651
60 | G44U C72U C115U U129G | -4.96
61 | G44C U92G U112C | -0.938
62 | G44U C56A | -1.54
63 | G44U A95U G117C | -4.64
64 | G45A A84C G120C G135A | 0.21
65 | G44U C53A C70A | -2.06
66 | G44A G51A G63U U125A | -7.95
67 | G44C G63U C79U | -1.08
68 | G44U A74U C88A U133G | -2.41
69 | G44A C94U U126G | -2.82
70 | G44U G69A C76A G120C | -6.09
71 | G45A A118G | -1.02
72 | G44U C72U U96A U106G G117U A119U | -6.08

Row | Variant | polymerase ribozyme fitness (log ratio)
73 | G44U G45C U78C | -3.51
74 | G44A G71A A91G U116A G122A C124U | -4.96
75 | G44C C72U U78G C115G U133G | -1.84
76 | G45A C56G U87G C114G | -5.48
77 | G44U G45A U54A | -3.42
78 | G45A G48A C86A C89U | -2.36
79 | G44A G69C | -2.21
80 | G44C A46G | -0.686
81 | G44U C49A G77U G120C U130G | -2.08
82 | G44A C56A C89U C97U U116A | -3.63
83 | G44A C70U C89A A100U U133C | -3.92
84 | G44A U55A C70A | -3.95
85 | G44A G61C U78C C79G U112G | -3.26
86 | G45A C62U | -0.924
87 | G45A C62A | -1.81
88 | G44U G107A | -6.9
89 | G44A C72G | -1.16
90 | G44A C72U | -1.55
91 | G45A C85G | -3.89
92 | G45A C79G G107A | -7.38
93 | G44C U125A | -1.22
94 | G45A A46U U55C C89U U131A | -0.91
95 | G44C G135U | -1.88
96 | G44U U59G G120A | 0.601

Row | Variant | polymerase ribozyme fitness (log ratio)
97 | G44A G61U | -0.0446
98 | G44A C64U | -1.11
99 | G44A U96G | -2.12
100 | G45A A103U | -7.16
101 | G44A C124A | 0.456
102 | G45A A119G | 0.105
103 | G44C U54A C64U C82U C114G | -4.69
104 | G44C G69U A121C | 1.9
105 | G45A C123G | 0.984
106 | G44C A50G G52U U54C U92C C124A | 0.995
107 | G45A C73U C88A U112C G122U | 0.105
108 | G44A G57A A91G C101G G113U | -4.86
109 | G44A G52A C56U | -1.35
110 | G44U A121U | 0.755
111 | G44U U54C C64U C102U G113A G128U | -6.53
112 | G44A G51C | -5.22
113 | G44A G52U G122A C123U C124G U130G | -1.46
114 | G44A C88U | -1.23
115 | G44C U112G G120U G127C | -5.08
116 | G44U G58C C62A | -2.17
117 | G44U A46C | -2.3
118 | G44C C73A C115U | -2.64
119 | G44U A68G C85A | -5.43
120 | G45A C99A | -6.7

Row | Variant | polymerase ribozyme fitness (log ratio)
121 | G44U U96C G120A G122A U129G | -2.51
122 | G44U U59G | -0.461
123 | G44C G63A A121G | 0.865
124 | G44U G51A | -5.35
125 | G44U C64U C82U U106G G120A | -1.25
126 | G44U G60U C94U | -0.792
127 | G44U C123U | 0.929
128 | G45A A111G C114A | -5.79
129 | G44C C102A | -3.4
130 | G44U G60C A91U A121G | -0.902
131 | G44A G48C C56A | -1.29
132 | G44U C102G | -8.01
133 | G44A G71C C89U | -1.03
134 | G45A C80A C115A | -3.93
135 | G44A C89U C104A U106A | -2.1
136 | G45A C49A C72G G128A | -3.14
137 | G44A C94U | -0.754
138 | G45A C115A | -1.15
139 | G44C G122A | -1.4
140 | G44U C53A G63A G113A | -2.93
141 | G44C G71A C82U A83C | -2.53
142 | G44C A50C G60U | -1.12
143 | G44U G120U U130G | -1.7
144 | G44C G93U | -2.85

Row | Variant | polymerase ribozyme fitness (log ratio)
145 | G44C G93A | -0.685
146 | G45A C62A U112G C115G | -3.1
147 | G44C C53U C76U | -1.48
148 | G45A C72U G110C | -4.39
149 | G44A U59A G63A C89G C115A C124A U129A | -5.52
150 | G44C C76U U78A | -1.08
151 | G44C U87G | -0.724
152 | G44C U59C | -1.09
153 | G45A A50U C124U U125G | -0.0022
154 | G44U A95G C99U | -4.84
155 | G44C U106G C124G G135A | -0.579
156 | G44U A46G C62U C94G | -4.05
157 | G44U G71A U130A | -2.12
158 | G45A C53G | -0.662
159 | G44U C53G G61C G93A | -2.01
160 | G44U G60A | -0.946
161 | G44C G127A U130G | -2.95
162 | G45A A50U | -1.05
163 | G44C C101A | -1.76
164 | G44A G60C | 0.513
165 | G44U G71U C104U U106A | -1.53
166 | G44U U96A U116G | -3.66
167 | G45A G47U A66U C73A C82U | -3.27
